Tests used:
[1] = biological target: human uPAR on SW480 cells (人结肠癌细胞) (human) (UniProt Q03405); assay: flow cytometry on SW480 cells, antibody at 5 μg/ml, FITC goat anti-human IgG
[2] = biological target: 重组人uPAR蛋白 (recombinant human uPAR protein, uPAR-ECD) (human) (UniProt Q03405); assay: ELISA, plate coated with uPAR-ECD (2 ng/μl), antibody at 0.0625 μg/ml, goat anti-human IgG-HRP
[3] = biological target: 重组人uPAR蛋白 (recombinant human uPAR protein, uPAR-ECD) (human) (UniProt Q03405); assay: ELISA, plate coated with uPAR-ECD (2 ng/μl), antibody at 0.125 μg/ml, goat anti-human IgG-HRP

- 平均荧光强度 (MFI) [1]: 3.17
- 阳性率 (percent positive cells) [1]: 99.2%
- OD450 [2]: 1.42 OD450
- OD450 [3]: 1.86 OD450
B1: H5L5抗体 (humanized anti-uPAR antibody H5L5) (antibody, human IgG1, kappa, V domains shown)
VH: EVQLVQSGAEVKKPGATVKISCKASGYTFSDFYIHWVRQAPGKGLEWMGWIFHGSDNTEYNEKFRGRVTITADTSTDTGYLELSSLRSEDTAVYYCARWGPHWYFDVWGQGTLVSVSS
VL: MIQMTQSPSSVSASVGDRVTITCRASQDVSYMAWYQQKPGKAPKPWIFEISTLQSGVPSRFSGSGSGTDYSLTINSLQPEDFATYYCQQWNYPFTFGGGTKVEIKR
